Experiment: Hydrophobicity of peptides of subfraction SF4
Assay type: physicochemical
Details: single peptides of subfraction SF4
Description: Further separation of the third fraction (F3) on preparative High Pressure Liquid Chromatography (HPLC) using TSK G2000 SW column and a 5 mM ammonium acetate buffer mobile phase adjusted to pH 6.5 gives five subfractions (SF1 to SF5). Composition of subfraction four (SF4), obtained by RP-HPLC using C-18™ column, containing fifteen peptides having average molecular weight of 900 daltons (200 to 1400 daltons) and average hydrophobicity of 11.7 Kcal/mole (5 to 20 Kcal/mole) is presented in Table 2.

| Substance | Hydrophobicity |
| --- | --- |
| VLPVPQK (Peptide from enzymatic hydrolysate of milk proteins) [Casein β 170-176, peptide of SF4] | 12.3 kcal/mol |
| INNQFLPYPY (Peptide from enzymatic hydrolysate of milk proteins) [Casein κ 51-60, peptide of SF4] | 19.9 kcal/mol |
| YGLNYYQQKPVA (Peptide from enzymatic hydrolysate of milk proteins) [Casein κ 38-49, peptide of SF4] | 14.4 kcal/mol |
| YL: Casein α-s1 91-92, peptide of SF4 (UniProt P02662 106-107, looked up, fragment) | 5.3 kcal/mol |
| LYQGPIVL (Peptide from enzymatic hydrolysate of milk proteins) [Casein α-s2 99-106, peptide of SF4] | 17.7 kcal/mol |
| YVPLGTQY (Peptide from enzymatic hydrolysate of milk proteins) [Casein α-s1 166-173, peptide of SF4] | 12.7 kcal/mol |
| QGPIVLNPW (Peptide from enzymatic hydrolysate of milk proteins) [Casein α-s2 101-109, peptide of SF4] | 15.1 kcal/mol |
| VPLGTQY (Peptide from enzymatic hydrolysate of milk proteins) [Casein α-s1 167-173, peptide of SF4] | 9.9 kcal/mol |
| VLVL (Peptide from enzymatic hydrolysate of milk proteins) [β-Lactoglobulin 92-95, peptide of SF4] | 8.2 kcal/mol |
| SPAQILQWQVL (Peptide from enzymatic hydrolysate of milk proteins) [Casein κ 69-79, peptide of SF4] | 15.5 kcal/mol |
| IPIQY (Peptide from enzymatic hydrolysate of milk proteins) [Casein κ 26-30, peptide of SF4] | 11.3 kcal/mol |
| LYQEPVL (Peptide from enzymatic hydrolysate of milk proteins) [Casein β 192-198, peptide of SF4] | 9.3 kcal/mol |
| LLY (UniProt P02666 206-208, looked up, fragment) [Casein β 191-193, peptide of SF4] | 7.7 kcal/mol |
| LQSW (Peptide from enzymatic hydrolysate of milk proteins) [Casein β 140-143, peptide of SF4] | 5.3 kcal/mol |
| ALPQYL (Peptide from enzymatic hydrolysate of milk proteins) [Casein α-s2 175-180, peptide of SF4] | 10.9 kcal/mol |

Reference: US6506732B1, “Enzymatic hydrolysate of milk proteins” (Universite Laval, priority 1999, dated 2003)
